According to PMC2732903:

What was measured:
[1] = test system: Wt26 (DNA, G4) TTAGGGTTAGGGTTAGGGTTAGGGTT; test: EMSA, inhibition of Topo IIIα binding; details: 100 mM NaCl; 50 mM HEPES pH 7.9, room temperature; 50 nM Topo IIIα displaced; 20 nM DNA; indirect
[2] = test system: S310 (DNA, single strand) CCAGCTCTGCTTTGCATCTTT; test: EMSA, inhibition of Topo IIIα binding; details: 100 mM NaCl; 50 mM HEPES pH 7.9, room temperature; 50 nM Topo IIIα; 20 nM DNA; up to 10 µM telomestatin; indirect
[3] = test system: 21Gmu (21G mu3) (DNA, single strand) GGCTTACGGTTAGCGTTAGGG; test: EMSA, inhibition of Topo IIIα binding; details: 100 mM NaCl; 50 mM HEPES pH 7.9, room temperature; 50 nM Topo IIIα displaced; 20 nM DNA; indirect
[4] = test system: 21G (DNA, G4) GGGTTAGGGTTAGGGTTAGGG; test: EMSA, inhibition of Topo IIIα binding; details: 100 mM NaCl; 50 mM HEPES pH 7.9, room temperature; 50 nM Topo IIIα displaced; 20 nM DNA; indirect
[5] = test system: Wt26 (DNA, G4) TTAGGGTTAGGGTTAGGGTTAGGGTT; test: EMSA, inhibition of hPOT1 binding; details: 100 mM NaCl; 50 mM HEPES pH 7.9, room temperature; 30 nM hPOT1 displaced; 20 nM DNA; indirect
[6] = target: T1, Topoisomerase IIIα (Topo III) (human, UniProt Q13472 1-1001); test: competition; unlabelled competitor vs 32P-24C (20 nM), Topo III 50 nM; 50 mM HEPES pH 7.9, 100 mM NaCl, 0.1 mM EDTA, 4% sucrose, 2% glycerol, 0.1 mg/mL BSA, 0.02% bromophenol blue, 20 nM probe, room temperature 30 min; 1% agarose; details: protein: recombinant; G4-forming
T1 sequence: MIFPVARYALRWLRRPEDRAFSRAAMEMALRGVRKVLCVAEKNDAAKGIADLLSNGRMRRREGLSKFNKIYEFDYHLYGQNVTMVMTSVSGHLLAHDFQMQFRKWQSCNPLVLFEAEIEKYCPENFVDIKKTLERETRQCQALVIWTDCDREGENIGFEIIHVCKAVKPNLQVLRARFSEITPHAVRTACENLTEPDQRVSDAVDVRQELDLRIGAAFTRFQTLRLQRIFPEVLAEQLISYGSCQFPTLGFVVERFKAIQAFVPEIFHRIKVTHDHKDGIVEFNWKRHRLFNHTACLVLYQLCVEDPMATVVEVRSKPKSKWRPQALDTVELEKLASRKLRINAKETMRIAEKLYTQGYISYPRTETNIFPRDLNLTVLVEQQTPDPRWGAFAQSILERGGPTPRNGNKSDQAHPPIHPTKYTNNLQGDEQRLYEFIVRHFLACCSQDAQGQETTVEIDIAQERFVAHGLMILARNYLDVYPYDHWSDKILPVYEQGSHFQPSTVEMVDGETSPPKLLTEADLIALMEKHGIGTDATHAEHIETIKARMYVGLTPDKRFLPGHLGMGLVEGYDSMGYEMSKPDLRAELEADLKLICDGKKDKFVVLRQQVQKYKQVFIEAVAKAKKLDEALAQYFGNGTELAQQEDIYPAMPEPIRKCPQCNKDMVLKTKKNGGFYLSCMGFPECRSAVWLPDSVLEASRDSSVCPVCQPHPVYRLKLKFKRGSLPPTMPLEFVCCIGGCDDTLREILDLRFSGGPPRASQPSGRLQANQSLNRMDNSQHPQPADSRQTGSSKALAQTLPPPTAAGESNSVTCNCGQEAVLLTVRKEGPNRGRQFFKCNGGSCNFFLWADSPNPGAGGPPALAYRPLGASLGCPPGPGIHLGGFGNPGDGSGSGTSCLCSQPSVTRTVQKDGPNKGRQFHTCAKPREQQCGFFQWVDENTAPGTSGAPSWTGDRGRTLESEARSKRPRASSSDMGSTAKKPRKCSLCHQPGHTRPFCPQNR

[7] = target: T1, Topoisomerase IIIα (Topo III); test: competition; unlabelled competitor vs 32P-24C; more potent than Pu22myc; non-G4 IC50s 4.3-10.1-fold lower than G4 oligos overall; 50 mM HEPES pH 7.9, 100 mM NaCl, 0.1 mM EDTA, 4% sucrose, 2% glycerol, 0.1 mg/mL BSA, 0.02% bromophenol blue, 20 nM probe, room temperature 30 min; 1% agarose; details: protein: recombinant; single strand, cannot form G4
[8] = target: T1, Topoisomerase IIIα (Topo III); test: EMSA; no telomestatin; 50 mM HEPES pH 7.9, 100 mM NaCl, 0.1 mM EDTA, 4% sucrose, 2% glycerol, 0.1 mg/mL BSA, 0.02% bromophenol blue, 20 nM probe, room temperature 30 min; 1% agarose; details: protein: recombinant
hPOT1 = target: T2, hPOT1 (human, UniProt Q9NUX5 1-634); test: EMSA; no telomestatin; POT1 30 nM, probe 20 nM; 50 mM HEPES pH 7.9, 100 mM NaCl, 0.1 mM EDTA, 4% sucrose, 2% glycerol, 0.1 mg/mL BSA, 0.02% bromophenol blue, 20 nM probe, room temperature 30 min; 1% agarose; details: protein: recombinant; label: 32P; G4-forming
T2 sequence: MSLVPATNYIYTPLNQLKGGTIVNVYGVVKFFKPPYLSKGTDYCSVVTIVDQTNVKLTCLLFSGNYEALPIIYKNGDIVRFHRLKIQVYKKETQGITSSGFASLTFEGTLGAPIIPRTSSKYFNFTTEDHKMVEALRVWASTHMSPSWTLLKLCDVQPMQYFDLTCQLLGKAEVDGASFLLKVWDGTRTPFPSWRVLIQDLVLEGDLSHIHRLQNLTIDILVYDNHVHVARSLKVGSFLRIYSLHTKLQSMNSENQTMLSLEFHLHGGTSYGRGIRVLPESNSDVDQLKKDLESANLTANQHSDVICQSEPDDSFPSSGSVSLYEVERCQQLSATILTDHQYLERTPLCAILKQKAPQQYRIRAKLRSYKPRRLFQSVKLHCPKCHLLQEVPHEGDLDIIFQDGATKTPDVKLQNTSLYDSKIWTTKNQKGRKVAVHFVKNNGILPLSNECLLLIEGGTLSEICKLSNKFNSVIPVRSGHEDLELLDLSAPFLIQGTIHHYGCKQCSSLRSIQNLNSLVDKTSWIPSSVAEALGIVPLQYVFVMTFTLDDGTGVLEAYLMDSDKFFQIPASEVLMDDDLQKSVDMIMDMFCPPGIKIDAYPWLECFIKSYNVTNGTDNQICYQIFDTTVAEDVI

[9] = target: T1, Topoisomerase IIIα (Topo III); test: EMSA; no ligand; probe 20 nM, Topo III 50 nM; 50 mM HEPES pH 7.9, 100 mM NaCl, 0.1 mM EDTA, 4% sucrose, 2% glycerol, 0.1 mg/mL BSA, 0.02% bromophenol blue, 20 nM probe, room temperature 30 min; 1% agarose; details: protein: recombinant; label: 32P; single strand

Cc1oc2nc1-c1nc(co1)-c1nc(co1)-c1nc(co1)-c1nc(co1)-c1nc(co1)C1=NC(CS1)c1nc-2c(C)o1 (stereo not shown)
IC50 [1]: 60 nM
binding [2]: no
IC50 [3]: > 10000 nM
IC50 [4]: 300 nM
IC50 [5]: 100 nM

B1: Pu22myc (structured_DNA)
DNA: GAGGGTGGGGAGGGTGGGGAAG
binding signal [6]: ~3 fold higher concentration than Pu22mu needed to inhibit binding

B2: Pu22mu (ssDNA)
DNA: GAGGGTGAAGAGGGTGGGGAAG
binding result [7]: binds

B3: 21G mu3 (21Gmu) (ssDNA)
DNA: GGCTTACGGTTAGCGTTAGGG
binding result ([8]; label: 32P when used as probe, single strand, cannot form G4): binds

B4: Wt26 (structured_DNA)
DNA: TTAGGGTTAGGGTTAGGGTTAGGGTT
binding result ([8]; label: 32P, G4-forming): binds
binding result (hPOT1): binds

B5: 24C (ssDNA)
DNA: CCCTAACCCTAACCCTAACCCTAA
binding result [9]: binds

B6: S310 (ssDNA)
DNA: CCAGCTCTGCTTTGCATCTTT
binding result ([8]; label: 32P): binds

B7: 21G (structured_DNA)
DNA: GGGTTAGGGTTAGGGTTAGGG
binding result ([8]; label: 32P when used as probe, G4-forming): binds
